Measurements reported in the Human Domainome abundance scans (Beltran et al. 2025).
± gives the uncertainty stated by the source.

B1: GA-binding protein alpha chain, residues 172 to 250; numbered along this chain, Q06546 (parent)
chain: GYRKEQERLGIPYDPIQWSTDQVLHWVVWVMKEFSMTDIDLTTLNISGRELCSLNQEDFFQRVPRGEILWSHLELLRKY

Variants of: B1
Assay: abundance fitness (aPCA) (normalised: wild type 0, dead -1); higher = more abundant; growth selection in yeast, the domain comes from the species named
Details: Homo sapiens

Compared with H25Y, H25S is lower in abundance fitness: -0.002 ± 0.071 for the first, -0.27 ± 0.042 for the second.

R3P and L69W are within error of each other in abundance fitness: -0.517 ± 0.068 for the first, -0.432 ± 0.044 for the second.

Compared with L69N, L69F is higher in abundance fitness: -0.974 ± 0.46 for the first, -0.027 ± 0.061 for the second.

F59H and F59K are within error of each other in abundance fitness: -0.931 ± 0.23 for the first, -0.815 ± 0.22 for the second.

F59R and D40Y are within error of each other in abundance fitness: -0.552 ± 0.058 for the first, -0.698 ± 0.18 for the second.

D40K and D40A are within error of each other in abundance fitness: -0.23 ± 0.066 for the first, -0.226 ± 0.037 for the second.

First: T20N
Second: T20D
The abundance fitness of the first is higher: 0.103 ± 0.099 for the first, -0.101 ± 0.086 for the second.

Going from Q6H to Q6I, the abundance fitness rises from -0.852 ± 0.11 to 0.078 ± 0.091.

First: Y79W
Second: N45W
The abundance fitness of the first is higher: -0.09 ± 0.055 for the first, -0.276 ± 0.045 for the second.

Compared with N45K, E7R is lower in abundance fitness: 0.032 ± 0.071 for the first, -0.141 ± 0.03 for the second.

G48D and G48S are the same in abundance fitness: -0.804 ± 0.14 for the first, -0.804 ± 0.082 for the second.

First: G48H
Second: V63E
The abundance fitness of the first is higher: -0.305 ± 0.19 for the first, -0.563 ± 0.045 for the second.

First: V63P
Second: E57A
The abundance fitness of the first is lower: -0.667 ± 0.12 for the first, 0.011 ± 0.047 for the second.

E57M and E57K are within error of each other in abundance fitness: -0.139 ± 0.073 for the first, -0.122 ± 0.089 for the second.

E57T and E57W are within error of each other in abundance fitness: -0.068 ± 0.061 for the first, -0.135 ± 0.068 for the second.

E57S and E57C are within error of each other in abundance fitness: -0.051 ± 0.042 for the first, -0.058 ± 0.086 for the second.

G10C and G10M are within error of each other in abundance fitness: -0.079 ± 0.05 for the first, -0.096 ± 0.059 for the second.

G10K and Q61A are within error of each other in abundance fitness: -0.041 ± 0.051 for the first, -0.014 ± 0.038 for the second.

Going from Q61S to E33G, the abundance fitness falls from 0.004 ± 0.045 to -0.196 ± 0.032.

First: W70C
Second: W70R
The abundance fitness of the first is lower: -0.793 ± 0.12 for the first, -0.526 ± 0.036 for the second.

L9S and L9I are within error of each other in abundance fitness: -0.174 ± 0.046 for the first, -0.081 ± 0.13 for the second.

L9A and R8H are within error of each other in abundance fitness: -0.08 ± 0.053 for the first, -0.21 ± 0.1 for the second.

R8T and R8M are within error of each other in abundance fitness: -0.117 ± 0.064 for the first, -0.133 ± 0.058 for the second.

Compared with E74G, V30Q is lower in abundance fitness: -0.066 ± 0.041 for the first, -0.345 ± 0.054 for the second.

L51F and L51D are within error of each other in abundance fitness: -0.815 ± 0.12 for the first, -0.786 ± 0.3 for the second.

Compared with K4C, K4T is higher in abundance fitness: -0.27 ± 0.055 for the first, -0.067 ± 0.1 for the second.

K4A and K4N are within error of each other in abundance fitness: -0.063 ± 0.044 for the first, -0.032 ± 0.2 for the second.

Going from S47Q to S47M, the abundance fitness falls from -0.276 ± 0.065 to -0.446 ± 0.086.

S47K and S47G are within error of each other in abundance fitness: -0.137 ± 0.062 for the first, -0.14 ± 0.032 for the second.

Going from V27Y to L44E, the abundance fitness falls from -0.197 ± 0.091 to -0.876 ± 0.14.

L44M and Q56I are within error of each other in abundance fitness: -0.019 ± 0.057 for the first, -0.133 ± 0.088 for the second.

Q56P and Q56H are within error of each other in abundance fitness: -0.178 ± 0.055 for the first, -0.049 ± 0.083 for the second.

Compared with Q56V, K32R is higher in abundance fitness: -0.184 ± 0.047 for the first, -0.024 ± 0.041 for the second.

K32P and P15F are within error of each other in abundance fitness: -0.734 ± 0.09 for the first, -0.717 ± 0.094 for the second.

Going from P15R to P15S, the abundance fitness falls from -0.56 ± 0.04 to -0.765 ± 0.066.

D38N and D38Q are within error of each other in abundance fitness: -0.082 ± 0.072 for the first, -0.099 ± 0.077 for the second.

First: D38E
Second: D38R
The abundance fitness of the first is higher: 0.03 ± 0.066 for the first, -0.168 ± 0.031 for the second.

P64V and P64C are within error of each other in abundance fitness: -0.406 ± 0.039 for the first, -0.288 ± 0.098 for the second.

Going from H72A to H72S, the abundance fitness rises from -0.244 ± 0.043 to -0.143 ± 0.035.

Going from H72P to E67P, the abundance fitness rises from -1 ± 0.12 to -0.239 ± 0.042.

First: R62G
Second: R62L
The abundance fitness of the first is lower: -0.426 ± 0.06 for the first, 0.008 ± 0.037 for the second.

Compared with R62K, R62D is lower in abundance fitness: -0.014 ± 0.089 for the first, -0.797 ± 0.35 for the second.

Compared with L24N, P12M is lower in abundance fitness: -0.075 ± 0.087 for the first, -0.903 ± 0.12 for the second.

Going from P12E to P12A, the abundance fitness rises from -0.478 ± 0.069 to -0.3 ± 0.033.

Going from P12S to L54D, the abundance fitness falls from -0.229 ± 0.036 to -0.842 ± 0.35.

Going from L54V to I68L, the abundance fitness rises from -0.341 ± 0.058 to -0.037 ± 0.032.

I68W and I68Q are within error of each other in abundance fitness: -0.115 ± 0.045 for the first, -0.077 ± 0.048 for the second.

Compared with W29D, S35V is higher in abundance fitness: -0.57 ± 0.12 for the first, -0.165 ± 0.054 for the second.

T42C and T42S are within error of each other in abundance fitness: -0.051 ± 0.047 for the first, -0.011 ± 0.034 for the second.

L75A and L75F are within error of each other in abundance fitness: -0.02 ± 0.048 for the first, -0.136 ± 0.098 for the second.

R65F and R65H are within error of each other in abundance fitness: -0.177 ± 0.082 for the first, -0.111 ± 0.071 for the second.

Compared with R65C, R65P is lower in abundance fitness: -0.004 ± 0.081 for the first, -0.455 ± 0.05 for the second.

Q22F and L76R are within error of each other in abundance fitness: -0.792 ± 0.16 for the first, -0.677 ± 0.07 for the second.

Going from L76C to L76S, the abundance fitness falls from -0.119 ± 0.05 to -0.676 ± 0.06.

Going from L76K to K78F, the abundance fitness rises from -0.876 ± 0.28 to -0.086 ± 0.082.

I46G and I46T are within error of each other in abundance fitness: -0.796 ± 0.073 for the first, -0.654 ± 0.078 for the second.

Compared with S19A, S19W is lower in abundance fitness: -0.664 ± 0.062 for the first, -0.927 ± 0.11 for the second.

Going from S19G to S19Y, the abundance fitness falls from -0.34 ± 0.035 to -0.65 ± 0.14.

First: E50M
Second: E50P
The abundance fitness of the first is higher: -0.24 ± 0.071 for the first, -0.94 ± 0.091 for the second.

Going from E50Y to D14M, the abundance fitness falls from -0.117 ± 0.076 to -0.784 ± 0.081.

Going from D14Y to S53F, the abundance fitness rises from -0.57 ± 0.11 to -0.269 ± 0.063.

N55D and N55E are within error of each other in abundance fitness: 0.008 ± 0.054 for the first, -0.037 ± 0.078 for the second.

Compared with N55Y, T37H is higher in abundance fitness: -0.274 ± 0.089 for the first, -0.037 ± 0.088 for the second.

L73A and L73C are within error of each other in abundance fitness: -0.736 ± 0.071 for the first, -0.979 ± 0.2 for the second.

First: W18S
Second: D21W
The abundance fitness of the first is lower: -0.835 ± 0.072 for the first, -0.185 ± 0.04 for the second.

Compared with D21I, D21G is higher in abundance fitness: -0.36 ± 0.068 for the first, -0.002 ± 0.031 for the second.

D21R and M36D are within error of each other in abundance fitness: -0.096 ± 0.032 for the first, -0.019 ± 0.05 for the second.

First: M31F
Second: M31Y
The abundance fitness of the first is higher: -0.09 ± 0.087 for the first, -0.322 ± 0.088 for the second.

I11P and I11H are within error of each other in abundance fitness: -0.928 ± 0.13 for the first, -0.644 ± 0.25 for the second.

First: I11S
Second: S71N
The abundance fitness of the first is lower: -0.842 ± 0.075 for the first, -0.115 ± 0.06 for the second.

S71I and S71L are within error of each other in abundance fitness: -0.157 ± 0.059 for the first, -0.156 ± 0.04 for the second.

R49T and R49Y are within error of each other in abundance fitness: -0.085 ± 0.053 for the first, -0.077 ± 0.066 for the second.

R49H and R49Q are within error of each other in abundance fitness: -0.152 ± 0.1 for the first, -0.021 ± 0.061 for the second.

V23Q and V23I are within error of each other in abundance fitness: -0.9 ± 0.13 for the first, -0.794 ± 0.14 for the second.

Compared with V23T, F34P is lower in abundance fitness: -0.058 ± 0.037 for the first, -0.605 ± 0.056 for the second.

Going from F34Q to R77T, the abundance fitness falls from -0.012 ± 0.08 to -0.246 ± 0.048.

R77E and R77G are within error of each other in abundance fitness: -0.36 ± 0.11 for the first, -0.515 ± 0.056 for the second.

Compared with R77I, D58S is higher in abundance fitness: -0.23 ± 0.084 for the first, 0.003 ± 0.042 for the second.

Compared with D58I, W26H is lower in abundance fitness: -0.022 ± 0.094 for the first, -0.822 ± 0.16 for the second.

W26F and W26Y are within error of each other in abundance fitness: -0.404 ± 0.12 for the first, -0.514 ± 0.12 for the second.

L41E and Y13D are within error of each other in abundance fitness: -0.153 ± 0.059 for the first, -0.064 ± 0.052 for the second.

Going from Y13K to I39R, the abundance fitness falls from -0.024 ± 0.063 to -0.281 ± 0.032.

I39A and I39Y are within error of each other in abundance fitness: -0.192 ± 0.046 for the first, -0.317 ± 0.1 for the second.

E5P gave an abundance fitness of -0.958 ± 0.19.
